From publication doi:10.1101/2025.09.17.676191 (bioRxiv, 2025)

Biological target: the molecule itself
Assay: cryo-EM structure

B1: wild-type mouse TRPV3 channel (natural protein, UniProt Q8K424 1-791, looked up)
chain: MNAHSKEMAPLMGKRTTAPGGNPVVLTEKRPADLTPTKKSAHFFLEIEGFEPNPTVTKTSPPIFSKPMDSNIRQCLSGNCDDMDSPQSPQDDVTETPSNPNSPSANLAKEEQRQKKKRLKKRIFAAVSEGCVEELRELLQDLQDLCRRRRGLDVPDFLMHKLTASDTGKTCLMKALLNINPNTKEIVRILLAFAEENDILDRFINAEYTEEAYEGQTALNIAIERRQGDITAVLIAAGADVNAHAKGVFFNPKYQHEGFYFGETPLALAACTNQPEIVQLLMENEQTDITSQDSRGNNILHALVTVAEDFKTQNDFVKRMYDMILLRSGNWELETMRNNDGLTPLQLAAKMGKAEILKYILSREIKEKPLRSLSRKFTDWAYGPVSSSLYDLTNVDTTTDNSVLEIIVYNTNIDNRHEMLTLEPLHTLLHTKWKKFAKYMFFLSFCFYFFYNITLTLVSYYRPREDEDLPHPLALTHKMSWLQLLGRMFVLIWATCISVKEGIAIFLLRPSDLQSILSDAWFHFVFFVQAVLVILSVFLYLFAYKEYLACLVLAMALGWANMLYYTRGFQSMGMYSVMIQKVILHDVLKFLFVYILFLLGFGVALASLIEKCSKDKKDCSSYGSFSDAVLELFKLTIGLGDLNIQQNSTYPILFLFLLITYVILTFVLLLNMLIALMGETVENVSKESERIWRLQRARTILEFEKMLPEWLRSRFRMGELCKVADEDFRLCLRINEVKWTEWKTHVSFLNEDPGPIRRTADLNKIQDSSRSNSKTTLYAFDELDEFPETSV
  stoichiometry N: 4
